# Results taken from the Immune Epitope Database (IEDB).
# Key:
# HLA-B*46:01 [1] = assay: IEDB peptide-MHC binding, purified MHC/direct/fluorescence; filed as Kd, often an IC50 or EC50 that approximates it; ≥ and ≤ were set here for values at or beyond the usual limits of such assays
# HLA-A*02:01 [2] = assay: as above
# HLA-A*11:01 = assay: as above
# HLA-B*08:01 [3] = assay: as above
# HLA-B*27:05 = assay: as above
# HLA-B*58:01 = assay: as above
# HLA-A*69:01 = assay: as above
# HLA-A*26:01 = assay: as above
# HLA-B*07:02 [4] = assay: as above
# HLA-A*31:01 = assay: as above; conditions: source organism: Pseudomonas aeruginosa UCBPP-PA14
# HLA-A*01:01 [5] = assay: as above
# HLA-B*15:01 [6] = assay: as above
# HLA-A*03:01 = assay: as above
# HLA-A*02:06 = assay: IEDB peptide-MHC binding, purified MHC/competitive/radioactivity; filed as Kd, often an IC50 or EC50 that approximates it; ≥ and ≤ were set here for values at or beyond the usual limits of such assays
# HLA-B*15:01 [7] = assay: as above
# HLA-B*51:01 = assay: as above
# HLA-B*54:01 = assay: as above
# HLA-B*07:02 [8] = assay: as above
# HLA-B*53:01 = assay: as above
# HLA-B*35:01 = assay: as above
# HLA-B*57:01 = assay: IEDB peptide-MHC binding, purified MHC/direct/fluorescence; filed as Kd, often an IC50 or EC50 that approximates it; ≥ and ≤ were set here for values at or beyond the usual limits of such assays
# HLA-B*46:01 [9] = assay: IEDB peptide-MHC binding, purified MHC/competitive/fluorescence; filed as Kd, often an IC50 or EC50 that approximates it; ≥ and ≤ were set here for values at or beyond the usual limits of such assays; conditions: source organism: Listeria monocytogenes J0161
# HLA-A*01:01 [10] = assay: as above
# HLA-B*08:01 [11] = assay: IEDB peptide-MHC binding, purified MHC/competitive/radioactivity; filed as Kd, often an IC50 or EC50 that approximates it; ≥ and ≤ were set here for values at or beyond the usual limits of such assays; conditions: source organism: Dengue virus 1 Brazil/97-11/1997
# HLA-A*30:02 = assay: as above; conditions: source organism: Dengue virus 3 Martinique/1243/1999
# HLA-A*24:02 = assay: as above; conditions: source organism: Dengue virus 2 Peru/IQT2913/1996
# HLA-A*23:01 = assay: as above; conditions: source organism: Dengue virus 2 Peru/IQT2913/1996
# HLA-A*02:01 [12] = assay: IEDB peptide-MHC binding, purified MHC/competitive/fluorescence; filed as Kd, often an IC50 or EC50 that approximates it; ≥ and ≤ were set here for values at or beyond the usual limits of such assays; conditions: source organism: Pan troglodytes
# HLA-B*27:03 = assay: as above; conditions: source organism: Pan troglodytes
# HLA-B*40:01 = assay: IEDB peptide-MHC binding, purified MHC/direct/fluorescence; filed as Kd, often an IC50 or EC50 that approximates it; ≥ and ≤ were set here for values at or beyond the usual limits of such assays; conditions: source organism: Giardia lamblia ATCC 50803
# [13] = source organism: Pseudomonas aeruginosa UCBPP-PA14
# [14] = source organism: Dengue virus 2 Jamaica/1409/1983
# [15] = source organism: Vaccinia virus WR
# [16] = source organism: Triticum aestivum
# [17] = source organism: Listeria monocytogenes
# [18] = source organism: SARS coronavirus Tor2
# [19] = source organism: Dengue virus 1 Brazil/97-11/1997
# [20] = source organism: Dengue virus 2 Peru/IQT2913/1996
# [21] = source organism: Vaccinia virus Copenhagen
# [22] = source organism: Mammarenavirus guanaritoense
# [23] = source organism: Mammarenavirus lassaense
# [24] = source organism: Burkholderia thailandensis
# [25] = source organism: Giardia lamblia ATCC 50803
sequence,measurement,setting,value
AMFEEQNQW,Kd,HLA-B*46:01 [1]; source organism: West Nile virus,≥ 20 µM
ANPGRVKDW,Kd,HLA-A*02:01 [2]; [13],≥ 20 µM
same,Kd,HLA-A*11:01; [13],≥ 20000 nM
same,Kd,HLA-B*08:01 [3]; [13],≥ 20 µM
same,Kd,HLA-B*27:05; [13],≥ 20 µM
same,Kd,HLA-B*58:01; [13],≥ 20 µM
same,Kd,HLA-A*69:01; [13],≥ 20000 nM
same,Kd,HLA-A*26:01; [13],≥ 20 µM
same,Kd,HLA-B*07:02 [4]; [13],≥ 20 µM
same,Kd,HLA-A*31:01,≥ 20 µM
same,Kd,HLA-A*01:01 [5]; [13],≥ 20000 nM
same,Kd,HLA-B*15:01 [6]; [13],≥ 20 µM
same,Kd,HLA-A*03:01; [13],≥ 20000 nM
AQMWTLMYF,Kd,HLA-A*02:06; [14],2.75 nM
same,Kd,HLA-B*15:01 [7]; [14],0.725 nM
EPLSPDTCL,Kd,HLA-B*51:01; [15],0.211 µM
same,Kd,HLA-B*54:01; [15],≥ 78.1 µM
same,Kd,HLA-B*07:02 [8]; [15],10500 nM
same,Kd,HLA-B*53:01; [15],0.189 µM
same,Kd,HLA-B*35:01; [15],522 nM
FPQHVITKDV,Kd,HLA-B*51:01; [15],0.0662 µM
same,Kd,HLA-B*54:01; [15],0.00046 µM
same,Kd,HLA-B*07:02 [8]; [15],57.3 nM
same,Kd,HLA-B*53:01; [15],0.0162 µM
same,Kd,HLA-B*35:01; [15],153 nM
FPQPQLPY,Kd,HLA-B*51:01; [16],0.0204 µM
same,Kd,HLA-B*54:01; [16],≥ 87.7 µM
same,Kd,HLA-B*07:02 [8]; [16],14100 nM
same,Kd,HLA-B*53:01; [16],1.04 µM
same,Kd,HLA-B*35:01; [16],244 nM
FSIMIYFTF,Kd,HLA-B*58:01; [17],≥ 20 µM
same,Kd,HLA-B*57:01; [17],≥ 20000 nM
same,Kd,HLA-B*46:01 [9],≥ 20 µM
GPKVKYLYF,Kd,HLA-B*51:01; [18],13.6 µM
same,Kd,HLA-B*54:01; [18],10.4 µM
same,Kd,HLA-B*07:02 [8]; [18],15800 nM
same,Kd,HLA-B*53:01; [18],≥ 41 µM
same,Kd,HLA-B*35:01; [18],≥ 52000 nM
GPLVRKIFV,Kd,HLA-B*51:01; [18],≥ 22.5 µM
same,Kd,HLA-B*54:01; [18],18 µM
same,Kd,HLA-B*07:02 [8]; [18],1380 nM
same,Kd,HLA-B*53:01; [18],11.9 µM
same,Kd,HLA-B*35:01; [18],6070 nM
GTFDLGGLY,Kd,HLA-A*01:01 [10]; source organism: Influenza A virus (A/X-31(H3N2)),486 nM
HPDFCKNRRY,Kd,HLA-B*51:01; [15],≥ 69.6 µM
same,Kd,HLA-B*54:01; [15],≥ 49.3 µM
same,Kd,HLA-B*07:02 [8]; [15],≥ 69600 nM
same,Kd,HLA-B*53:01; [15],1.14 µM
same,Kd,HLA-B*35:01; [15],2210 nM
HPRHYATIM,Kd,HLA-B*51:01; source organism: Variola virus,19.1 µM
same,Kd,HLA-B*54:01; source organism: Variola virus,18.2 µM
same,Kd,HLA-B*07:02 [8]; source organism: Variola virus,1.56 nM
same,Kd,HLA-B*53:01; source organism: Variola virus,17.2 µM
same,Kd,HLA-B*35:01; source organism: Variola virus,153 nM
HQLWTTLLSL,Kd,HLA-B*08:01 [11],1990 nM
same,Kd,HLA-A*02:06; [19],91.8 nM
same,Kd,HLA-B*15:01 [7]; [19],1.2 nM
ILALFLAHY,Kd,HLA-A*30:02,9.83 µM
same,Kd,HLA-B*15:01 [7]; source organism: Dengue virus 3 Martinique/1243/1999,53.8 nM
IMLIPTVMAF,Kd,HLA-A*24:02,1540 nM
same,Kd,HLA-B*15:01 [7]; [20],2.69 nM
same,Kd,HLA-B*53:01; [20],11.1 µM
same,Kd,HLA-A*23:01,82 nM
ISIKVKNHI,Kd,HLA-B*15:01 [7]; [15],5600 nM
LIIYYQLAG,Kd,HLA-B*15:01 [7]; [15],1290 nM
LISIRILYY,Kd,HLA-B*15:01 [7]; [21],144 nM
LPLTSLVITY,Kd,HLA-B*51:01; [15],16.5 µM
same,Kd,HLA-B*54:01; [15],2.7 µM
same,Kd,HLA-B*07:02 [8]; [15],7290 nM
same,Kd,HLA-B*53:01; [15],0.0127 µM
same,Kd,HLA-B*35:01; [15],8.35 nM
LPNDRVLDI,Kd,HLA-B*51:01; [22],0.539 µM
same,Kd,HLA-B*54:01; [22],13.1 µM
same,Kd,HLA-B*07:02 [8]; [22],7270 nM
same,Kd,HLA-B*53:01; [22],0.258 µM
same,Kd,HLA-B*35:01; [22],2690 nM
LPPKSSIDAF,Kd,HLA-B*51:01; [18],3.49 µM
same,Kd,HLA-B*54:01; [18],≥ 31.9 µM
same,Kd,HLA-B*07:02 [8]; [18],3090 nM
same,Kd,HLA-B*53:01; [18],11.1 µM
same,Kd,HLA-B*35:01; [18],1110 nM
LSCSVCNSL,Kd,HLA-B*15:01 [7]; [15],386 nM
LVHQVFGTAY,Kd,HLA-B*15:01 [7]; [19],7.15 nM
LYQPSSGCY,Kd,HLA-B*46:01 [1]; [23],≥ 20 µM
same,Kd,HLA-B*15:01 [6]; [23],1.07 µM
MSRGYFEHM,Kd,HLA-B*15:01 [7]; [15],30.8 nM
NIAFLDESF,Kd,HLA-B*15:01 [7]; [15],822 nM
NPIINTHSF,Kd,HLA-B*51:01; [15],≥ 27.1 µM
same,Kd,HLA-B*54:01; [15],9.62 µM
same,Kd,HLA-B*07:02 [8]; [15],3 nM
same,Kd,HLA-B*53:01; [15],0.000178 µM
same,Kd,HLA-B*35:01; [15],0.188 nM
NPSILPSLI,Kd,HLA-B*51:01; [15],0.304 µM
same,Kd,HLA-B*54:01; [15],≥ 73.4 µM
same,Kd,HLA-B*07:02 [8]; [15],287 nM
same,Kd,HLA-B*53:01; [15],0.00555 µM
same,Kd,HLA-B*35:01; [15],1120 nM
QPLQQYPL,Kd,HLA-B*51:01; [16],1.45 µM
same,Kd,HLA-B*54:01; [16],≥ 87.7 µM
same,Kd,HLA-B*07:02 [8]; [16],8450 nM
same,Kd,HLA-B*53:01; [16],≥ 22.4 µM
same,Kd,HLA-B*35:01; [16],≥ 36100 nM
QSKSSLLHA,Kd,HLA-B*15:01 [7]; [15],405 nM
RMNVFNGHL,Kd,HLA-B*15:01 [7]; [21],28 nM
RPDTRYVLM,Kd,HLA-B*51:01; [18],0.908 µM
same,Kd,HLA-B*54:01; [18],1.58 µM
same,Kd,HLA-B*07:02 [8]; [18],15.4 nM
same,Kd,HLA-B*53:01; [18],4.85 µM
same,Kd,HLA-B*35:01; [18],1990 nM
RPKQRRPQGL,Kd,HLA-B*51:01; [18],≥ 69.6 µM
same,Kd,HLA-B*54:01; [18],≥ 69.9 µM
same,Kd,HLA-B*07:02 [8]; [18],308 nM
same,Kd,HLA-B*53:01; [18],≥ 69.9 µM
same,Kd,HLA-B*35:01; [18],≥ 69900 nM
RVLTARKTV,Kd,HLA-B*07:02 [4]; source organism: Ovis aries,0.417 µM
same,Kd,HLA-A*02:01 [12],≥ 20 µM
same,Kd,HLA-B*27:03,≥ 20 µM
SPLTLLIKTL,Kd,HLA-B*51:01; [15],≥ 57.3 µM
same,Kd,HLA-B*54:01; [15],≥ 69.9 µM
same,Kd,HLA-B*07:02 [8]; [15],1120 nM
same,Kd,HLA-B*53:01; [15],≥ 30 µM
same,Kd,HLA-B*35:01; [15],≥ 69900 nM
STSADQQSLY,Kd,HLA-A*01:01 [10]; source organism: Influenza A virus (A/Swine/Indiana/9K035/99 (H1N2)),18.7 nM
TPIFSDLLKY,Kd,HLA-B*51:01; [15],≥ 44.8 µM
same,Kd,HLA-B*54:01; [15],12.8 µM
same,Kd,HLA-B*07:02 [8]; [15],3.46 nM
same,Kd,HLA-B*53:01; [15],3.61 µM
same,Kd,HLA-B*35:01; [15],12700 nM
WADMPLHQW,Kd,HLA-B*58:01; [24],0.009 µM
same,Kd,HLA-B*57:01; [24],469 nM
WPWYVWLGFI,Kd,HLA-B*51:01; [18],11.1 µM
same,Kd,HLA-B*54:01; [18],15.5 µM
same,Kd,HLA-B*07:02 [8]; [18],≥ 51800 nM
same,Kd,HLA-B*53:01; [18],4.57 µM
same,Kd,HLA-B*35:01; [18],≥ 69900 nM
WVSFNQNLEY,Kd,HLA-A*01:01 [10]; source organism: Influenza A virus (A/goose/Guangdong/1/1996(H5N1)),97.7 nM
YIILFILFF,Kd,HLA-B*15:01 [7]; [15],5240 nM
YTDDYPMYK,Kd,HLA-A*02:01 [2]; [25],≥ 20 µM
same,Kd,HLA-A*11:01; [25],40 nM
same,Kd,HLA-B*40:01,≥ 20 µM
same,Kd,HLA-B*08:01 [3]; [25],≥ 20 µM
same,Kd,HLA-B*27:05; [25],≥ 20 µM
same,Kd,HLA-B*58:01; [25],≥ 20 µM
same,Kd,HLA-A*69:01; [25],126 nM
same,Kd,HLA-A*26:01; [25],≥ 20 µM
same,Kd,HLA-B*07:02 [4]; [25],≥ 20 µM
same,Kd,HLA-A*01:01 [5]; [25],18.9 nM
same,Kd,HLA-B*15:01 [6]; [25],≥ 20 µM
same,Kd,HLA-A*03:01; [25],359 nM
